39 sequences from the supplement of paper PMC9170038 can be followed below.

Series [1] concerns MS2 coat protein. Briefly: apparent KD of MS2 coat protein, switch ON state; designed switch direction (-1 OFF switch, 1 ON switch): -1; higher = weaker reporter binding. Particulars: FMN input: 0 or 200 uM; Eterna round: R93 (includes R88 designs). In short, it runs like this:
(§1)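 Apparent KD is reported per design as the median of normalised binding-curve fits across its clusters. The RNA switches were made by on-chip transcription from Illumina sequencing clusters. SNAP-549-labelled MS2 coat protein was then added in twofold steps (0.7 or 1.5 nM to 3 µM; 0.8–1.5 h to 10–20 min per step) in 100 mM Tris-HCl pH 7.5, 80 mM KCl, 4 mM MgCl2, without or with constant ligand.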

The subject of series [2] is MS2 coat protein. Briefly: apparent KD of MS2 coat protein, switch OFF state (with FMN for OFF switches, without FMN for ON switches); designed switch direction (-1 OFF switch, 1 ON switch): -1; higher = weaker reporter binding. Conditions: FMN input: 0 or 200 uM; Eterna round: R93 (includes R88 designs). In short, it runs like this:
as §1

For “CCUAUGUCAGGAUAUCAGUAGUAAAAAAAAAAAAUUACUACUGAGAAGGGACAUGAGGAUCACCCAUGUCCCUU [EX4 309: Super Stable 9]”, the figures for the “apparent KD of MS2 coat protein” value in the series on MS2 coat protein [1] and in the series with MS2 coat protein [2] were 0.0153 µM and 0.0143 µM, respectively.
Taken in the same sequence, the figures for “AGUAGAUCAGGAUAUACAUGAAAGAUCAAAAUGUCCAAUAUACAUGAGGAUCACCCAUGUAGAAGGGAUCUACA [Ex2 Design 115: Not so Super Stable 2]” were 0.0999 µM and 0.0505 µM.
Taken in the same sequence, the figures for “AAGAAGUGAGGAUAUACAUGAGGAUCACCCAUGUAAAAGAAAGAAAGGGAAAAGAAAAGUAGAAGGCACAAGAA [Usermaatre-setpenre-meryamun Ramesses VII]” were 0.0365 µM and 0.0677 µM.
Taken in the same sequence, the figures for “AAAAUGUCAGGAUAUGCGAAGGCGUCUGAUAGACGAGGCUAGCAGAAGGGACAUGAGGAUCACCCAUGUGGAAA [Power strip 63% 2]” were 0.125 µM and 0.128 µM.
For “AAGAAACGAGGAUAUACAAGAAAGAAAGAAAAGAAAAGAAAACAUGAGGAUCACCCAUGUAGAAGGCGUUAGAA [EteRNA is fun!]”, the “apparent KD of MS2 coat protein” value in the series on MS2 coat protein [1] stood at 0.022 µM; in the series on MS2 coat protein [2] it was 0.0138 µM.
Regarding “AAGGAGUGAGGAUAUACAUGAGGAUCACCCAUGUUGAUGGAAACGUCAGAGAAAGAAGGUAGAAGGCACAAGAA [JR_Exclusion3_Sub6]”, the “apparent KD of MS2 coat protein” value was 0.0512 µM in the series on MS2 coat protein [1] and 0.0541 µM in the series with MS2 coat protein [2].
On the same counts, the results for “AAAAUACAUGAGGAUCACCCAUGUGAGGAUAUGCUAUGGAAAAUAAAAAUAAAACAUAGCAGAAGGUACAAAAA [Denovo 14]” are 0.0182 µM and 0.0334 µM.
On the same counts, the results for “AGAAAACAUGAGGAUCACCCAUGUGAGGAUAUCGAUGUCCAAAAAAAAGUGCGGGACUCGAGAAGGCACUUGGA [Erbelaed]” are 0.0466 µM and 0.0325 µM.
On the same counts, the results for “GUCGUGUGAGGAUAUGGAAAGAAGAAGAAAAGGUAGAAAAACUAGAAGGCACAUGAGGAUCACCCAUGUAAGAA [JR_Exc004_Sub1709]” are 0.0241 µM and 0.0223 µM.
As for “AGCUAGUCAGGAUAUACAAACAUGUCAAAAGACGUGAAGGAACAUGAGGAUCACCCAUGUAGAAGGGACUAGCA [Web Mod 74% 3]”, the “apparent KD of MS2 coat protein” value turned out to be 0.021 µM in the series on MS2 coat protein [1] and 0.0195 µM with MS2 coat protein [2].
Taken in the same sequence, the figures for “AAAAAGUGAGGAUAUACAGAUAAAAAAACGAAAAAAAAUCUGUAGAAGGCACAUGAGGAUCACCCAUGUAAAAA [Ex 4 May 3]” were 0.0434 µM and 0.039 µM.
As to “AAAAACCUAGGAUAUACAUGAGGAUCACCCAUGUAAAAAAAAAAAAAGGGAAAAAAAAGUAGAAGGAGGAAAAA [Sekhemre Wadjkhaw Sobekemsaf I]”, the “apparent KD of MS2 coat protein” value with MS2 coat protein [1] stood at 0.0206 µM; in the series with MS2 coat protein [2] it was 0.0249 µM.
Taken in the same sequence, the figures for “AAAAACCAAGGAUAUACAUGAGGAUCACCCAUGUAAAAAAAAAAAAAGGGAAAAAAAAGUAGAAGGUGGAAAAA [Sekhemre Shedtawy Sobekemsaf II]” were 0.0209 µM and 0.0386 µM.
Taken in the same sequence, the figures for “ACUAGUACAGGAUAUACAUGAGGAUCACCCAUGUGAGAAUUAAGUGGCGUACCACAAAGUAGAAGGGUACUAGA [Mat - Exclusion 3 - JL mod - D14]” were 0.0343 µM and 0.152 µM.
Taken in the same sequence, the figures for “CUCUUGUCAGGAUAUAGAAGAAAAGAAAAGAAAGAAAAGAACUAGAAGGGACAUGAGGAUCACCCAUGUAAGAA [EteRNA is fun!]” were 0.0875 µM and 0.0629 µM.
With “AUCAUGUAAGGAUAUUAAAGAAAAGAAAAGAAAGAAAAGAAUAAGAAGGUACAUGAGGAUCACCCAUGUAAGAA [EteRNA is fun!]”, the “apparent KD of MS2 coat protein” value was 0.027 µM in the series with MS2 coat protein [1] and 0.017 µM with MS2 coat protein [2].
On the same counts, the results for “AGUCAUACAGGAUAUACAUGAGGAUCACCCAUGUUUAUCCUAAAAUAAAAAAACUCAUGUAGAAGGGUAUGACA [EX3 214: Super Stable 14]” are 0.013 µM and 0.0313 µM.
On the same counts, the results for “AGUAGAUCAGGAUAUACAUAAAUGAUAAUUAUGUAAUUUCUACAUGAGGAUCACCCAUGUAGAAGGGAUCUACA [Ex2 Design 136: Not so Super Stable 24]” are 0.0144 µM and 0.0152 µM.
On the same counts, the results for “AAAAAGAGAGGAUAUACAUGAGGAUCACCCAUGUGACAUAAAAUAAAUAAAAUAAAGUGUAGAAGGCUCAAAAA [65%, Moding Exclusion3-cac2, 21]” are 0.0417 µM and 0.104 µM.
Take “AGAAAGUCAGGAUAUGCAGAAAAAAAAACGAAAAAAAAACUGCAGAAGGGACAUGAGGAUCACCCAUGUUAAAG [Mat - Exclusion 4 - Mayanna - D129]”: the “apparent KD of MS2 coat protein” value with MS2 coat protein [1] stood at 0.0466 µM; in the series with MS2 coat protein [2] it was 0.0349 µM.
As for “AGCUAGUCAGGAUAUACGAACAUGUCAAAAGACGUGAAAUAACAUGAGGAUCACCCAUGUAGAAGGGACUAGCA [Mat - Exclusion 2 - JL-Eli mod - D52]”, the results for the “apparent KD of MS2 coat protein” value in the series with MS2 coat protein [1] and in the series with MS2 coat protein [2] were 0.0174 µM and 0.0155 µM, respectively.
On the same counts, the results for “AAGAACCAAGGAUAUACAUGAAAGAAAGAAAAGAAAAGAAAACAUGAGGAUCACCCAUGUAGAAGGUGGUAGAA [EteRNA is fun!]” are 0.0702 µM and 0.105 µM.
Taken in the same sequence, the figures for “AAAAAGUGAGGAUAUACGUUAAAAAAAAAAAAAAAAAAGCAGUAGAAGGCACAUGAGGAUCACCCAUGUAAAAA [Ex4 Malc#2]” were 0.0413 µM and 0.026 µM.
As to “AGAUAGUCAGGAUAUACGAACAAGAAAAAAGACGAGAACGGACAUGAGGAUCACCCAUGUAGAAGGGACUAGCA [Diamond 10]”, the “apparent KD of MS2 coat protein” value with MS2 coat protein [1] was determined as 0.0356 µM; with MS2 coat protein [2] it was 0.0302 µM.
For the sequence “AAAGGACGAGGAUAUACAUGAGGAUCACCCAUGUAAAAAACAUAGUAAAAGAACUUGUGUAGAAGGCGUCCAAA [Meechl Ex3 2 R2 v7]”, the “apparent KD of MS2 coat protein” value was determined as 0.159 µM in the series on MS2 coat protein [1] and 0.181 µM in the series on MS2 coat protein [2].
Taken in the same sequence, the figures for “AAAAAAGGAGGAUAUACAUGAGGAUCACCCAUGUAAAAAGGGAAAAAAAAAAAAAAAAGUAGAAGGCCUAAAAA [JR_Exc003_Sub1701]” were 0.0417 µM and 0.0651 µM.
On the same counts, the results for “AAAGGACGAGGAUAUACAUGAGGAUCACCCAUGUAAAAAACAUAAUAAAAGAACUUAUGUAGAAGGCGUCCAAA [Meechl Ex3 2]” are 0.0538 µM and 0.318 µM.
Taken in the same sequence, the figures for “AAGGGACAUGAGGAUCACCCAUGUCAGGAUAUGCUAUGGAAAAUAAAAAUAAAACAUAGCAGAAGGGACACCAA [64%, Meechl, 3]” were 0.0259 µM and 0.0403 µM.
With “CUUAUGUAAGGAUAUCAGUAGUAAAAAAAUAAAAUUACUACUGAGAAGGUACAUGAGGAUCACCCAUGUCCGGG [EX4 375: Super Stable 75]”, the results for the “apparent KD of MS2 coat protein” value in the series on MS2 coat protein [1] and in the series with MS2 coat protein [2] were 0.0743 µM and 0.0247 µM, respectively.
On the same counts, the results for “AAAACGGCAGGAUAUACGAUUUGGAACUAGACCGAGGAACCACAUGAGGAUCACCCAUGUAGAAGGGCCAAAAA [Ex2 Malc#16]” are 0.0172 µM and 0.0197 µM.
On the same counts, the results for “GAAAAACAUGAGGAUCACCCAUGUAAGGAUAUGCUGAAAAACACGGAAAAACGUGACAGCAGAAGGUACAAAAG [Mat - Exclusion 1 - Eli mod - D94]” are 0.0183 µM and 0.04 µM.
Regarding “AAACCACAUGAGGAUCACCCAUGUCAGGAUAUGCACGAAAAUAAAUAAAAAUAAAAGUGCAGAAGGGACUAAAA [66%, Wbt, 14]”, the “apparent KD of MS2 coat protein” value with MS2 coat protein [1] worked out at 0.0319 µM; in the series with MS2 coat protein [2] it was 0.045 µM.
Turning to “AAAGGACGAGGAUAUACAUGAGGAUCACCCAUGUAAAAAACAUAAUAAAAGAACUUAUGUAGAAGGCGUCCAAA [Meechl Ex3 2 R1 - Copy of Meechl Ex3 2 from Round 1]”, the figures for the “apparent KD of MS2 coat protein” value in the series with MS2 coat protein [1] and in the series with MS2 coat protein [2] were 0.0538 µM and 0.318 µM, respectively.
Taken in the same sequence, the figures for “AAAAAGUGAGGAUAUCUGGAUAGGAAAAAGAAAACCUAUCCAGAGAAGGCACAUGAGGAUCACCCAUGUAAAAA [JL cataway mod 5]” were 0.0316 µM and 0.0412 µM.
Taken in the same sequence, the figures for “AAAACGUCAGGAUAUACAGAAGAGAUCACGAAAAAAAAAAAACAUGAGGAUCACCCAUGUAGAAGGGACAAAAA [Ex2 Malc#3]” were 0.117 µM and 0.136 µM.
“GAAAAACAUGAGGAUCACCCAUGUAAGGAUAUGCUAAAAAACACGGAAAAACGUGAUAGCAGAAGGUACAAAAA [Mat - Exclusion 1 - Eli mod - D89]”: the “apparent KD of MS2 coat protein” value in the series on MS2 coat protein [1] is 0.0241 µM; in the series with MS2 coat protein [2] it was 0.0365 µM.
For the sequence “AAAAAUGGAGGAUAUACAUGAGGAUCACCCAUGUGUAACUAUACUAAGCACAAACCAAGUAGAAGGCCAAAAAA [Gilly Gone Silly 10 - Jieux - Exclusion 3]”, the entries for the “apparent KD of MS2 coat protein” value with MS2 coat protein [1] and in the series on MS2 coat protein [2] were 0.0454 µM and 0.0953 µM, respectively.
On the same counts, the results for “AGUUGGCGAGGAUAUACAUGAGGAUCACCCAUGUAAAAAAAAAAAAAAAAAACUUCAUGUAGAAGGCGCUGACA [Starry Exclusion 3.4 (biggestlegoheroicafanever round 1 mod)]” are 0.0855 µM and 0.0631 µM.
On the same counts, the results for “AGUUAGCGAGGAUAUACAUGAGGAUCACCCAUGUGAGAGAAAAAAGUGAGAAAUAAAAGUAGAAGGCGCUAACA [Mat - Exclusion 3 - Eli mod - D69]” are 0.0389 µM and 0.361 µM.
